This experiment addresses T1, Bacillus subtilis DNA Ligase D (BsuLigD) (B. subtilis) (UniProt O34398).
T1 sequence: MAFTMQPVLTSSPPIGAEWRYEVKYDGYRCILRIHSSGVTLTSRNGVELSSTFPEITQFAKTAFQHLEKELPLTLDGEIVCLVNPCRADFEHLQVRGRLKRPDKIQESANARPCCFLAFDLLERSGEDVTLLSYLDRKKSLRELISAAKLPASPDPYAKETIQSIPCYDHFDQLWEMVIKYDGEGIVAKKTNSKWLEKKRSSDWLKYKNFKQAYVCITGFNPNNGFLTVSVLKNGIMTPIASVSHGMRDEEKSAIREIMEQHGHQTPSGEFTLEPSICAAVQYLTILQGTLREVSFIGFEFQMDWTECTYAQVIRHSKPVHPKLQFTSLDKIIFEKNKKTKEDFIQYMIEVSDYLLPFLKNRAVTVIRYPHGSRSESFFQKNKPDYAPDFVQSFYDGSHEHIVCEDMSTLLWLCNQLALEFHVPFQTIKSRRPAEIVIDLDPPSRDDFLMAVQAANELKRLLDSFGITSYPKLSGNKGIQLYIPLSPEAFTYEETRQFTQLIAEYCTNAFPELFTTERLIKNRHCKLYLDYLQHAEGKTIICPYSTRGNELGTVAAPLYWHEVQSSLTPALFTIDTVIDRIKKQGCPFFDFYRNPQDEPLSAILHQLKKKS

B1: Bacillus subtilis Ku (BsuKu) (natural protein)
chain: MNRTPSLHTKEKKGFIDMHTMWKGSISFGLVNIPIKLYAATEDKDIKLRSLHKEDHAPIKYEKVCTNCEKTLSPDEIVKGYEYVKGKYVVLTDEDLKSLKQEHEEKAVEIVDFVQLQEIDPIYFNRSYFVGPGDNGTKAYTLLREALRSTGKIGIANMTIRSKQQLAILRVYENCIVMESIHYPDEVRSAAQVPGVPDQSNVNDKELQTAITLIDELTAKFEPEKYEDTYRQALLQRVNDKLENKETAVTPDKAPPREDVIDLVSALQASIDRTRRPNRETPAAAPAQAAEPKGAGDKKQKTTRKKASGTS
In turn, B1 registered a primer usage by BsuLigD (percentage of extended primers against reaction time) on a gapped molecule, 10 ng BsuLigD, 10 µM NTPs, without or with 40 ng of BsuKu of 3 fold.

(Values after publication PMC3656841.)
